From patent US20160280780A1 (CORMORANT PHARMACEUTICALS, published 2016)
Positions count from the first letter of the chain named. Blank lines part the entries; values can stand above or below the molecule they belong to.

Columns and labels:
[1] = target: T1, rh-IL-8 72 aa form, monocyte derived (human, UniProt P10145 28-99); assay: cell-based or functional assay
T1 construct: mature; also called IL-8M; IL-8Mpepretech
T1 sequence (looked up): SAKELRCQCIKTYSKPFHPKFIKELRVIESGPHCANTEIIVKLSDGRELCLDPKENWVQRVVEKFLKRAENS

[2] = target: recombinant human IL-8 (form not stated for this assay) (human) (UniProt P10145); assay: competition: varying murine anti-IL-8 antibody against 0.25 nM [125I]-rhIL-8 binding to IL-8 receptors (CXCR1, CXCR2) on human neutrophils, filter plate, gamma counting; x axis printed 'IL-8 (nM)'
[3] = target: T2, recombinant human IL-8 (form not stated for this assay) (human, UniProt P10145 28-99, limits assumed); assay: SPR, BIAcore 3000, IL-8 amine-coupled on CM-5 chip, 37° C.
T2 construct: also called rhIL-8
T2 sequence (looked up): T1 sequence (looked up)
Experimental: (§1) Affinity constants for 10F8 Fab were determined and compared with corresponding values of 10F8 IgG1,κ. Whole IgG molecules lead to rebinding effects during the dissociation phase of experimental procedures to determine the affinity constants, thus leading to an apparently lower dissociation rate constant and in turn, much higher affinity constant. To eliminate these artifactual avidity effects, Fab molecules were used in the place of IgG1,κ to determine the affinity and rate constants. A CM-5 chip was used to immobilize IL-8 via amine coupling.

[4] = target: T1, rh-IL-8 72 aa form, monocyte derived; assay: ELISA, plate coated with 1 µg/mL rh-IL-8 72 aa form (curve IL-8Mpeprotec), HuMab 10F8 titrated 1:3 from 20 µg/mL, HRP anti-human IgG, A405
Experimental: (§2) Possible cross-reactivity of HuMab 10F8 clone towards other chemokines was evaluated by ELISA. Briefly, microtiter ELISA plates (Greiner, Germany) were coated overnight at room temperature (RT) with 1 μg/mL of recombinant human (rh) GRO-α, rh-GRO-β, rh-IP-10, rh-IL-8 72 aa form, which is monocyte derived (IL-8M or IL-8Mpepretech) or rh-IL-8 77 aa form (IL-8E), which is endothelial cell derived, 100 μl per well. Plates were washed twice with PBST (phosphate buffered saline supplemented with 0.05% v/v Tween-20 (Fischer Scientific, USA)) and wells were blocked with 100 […] PBSTC (PBST plus 2% v/v chicken serum) for 1 hour, RT. Thereafter, wells were incubated for 1 hour, RT under shaking conditions with HuMab-IL-8 clone 10F8, 20 μg/mL 1:3 diluted in PBSTC. Subsequently, wells were washed thrice with PBST and incubated with either HRP-conjugated rabbit anti-mouse IgG F(ab′)₂ fragments (Jackson; diluted 1:3000 in PBSTC) or HRP-conjugated rabbit anti-human IgG F(ab′)₂ (DAKO, Denmark; diluted 1:2000 in PBSTC) for the detection of mouse or human antibodies, respectively.

[5] = target: T2, recombinant human IL-8 (form not stated …); assay: inhibition of 0.25 nM [125I]-IL-8 binding to human neutrophils (CXCR1 and CXCR2), filter plate assay
Experimental: (§3) Neutrophils were enriched from heparinized whole blood from normal volunteers. The blood was layered on Ficoll-hypaque and centrifuged at 1500 rpm for 30 minutes. The mononuclear cell layer was removed, and erythrocytes were hypotonically lysed. The resulting neutrophils were resuspended in PBS containing 0.1% BSA and 0.02% Na azide (0.1% PBA) and held on ice. The IL-8 binding assay was performed as previously described (Yang et al, (1999) J. Leukoc. Biol. 66:401-410). Briefly, in a final volume of 150 μl, 4×10⁵ neutrophils were incubated from 1.5-3 hours on ice with 0.25 nM [¹²⁵I] recombinant human IL-8 (Amersham Life Sciences, Piscataway, N.J.) along with varying concentrations of 10F8 (hybridoma-derived), 10F8 (transfectoma-derived), mouse anti-human IL-8 mAb 6712.111 R & D Systems, and control antibody. All incubations were performed in 96 well Multiscreen filter plates (Millipore, Bedford, Mass.). Plates were washed extensively with cold 0.1% PBA, and filters were counted on a Wallac gamma counter. Results are shown in FIGS. 7A and 7B, expressed as means of triplicate or quadruplicates. The inhibition of binding is expressed as percentage of control antibody.
In the experiment shown in FIG. 7B, the IC₅₀s of 10F8 (hybridoma-derived) (10F8 H) and 10F8 (transfectoma-derived) (10F8 T) were 0.19 nM and 0.30 nM, respectively.

[6] = target: T3, rh-IP-10 (human, UniProt P02778 22-98); assay: ELISA, plate coated with 1 µg/mL rh-IP-10, HuMab 10F8 titrated 1:3 from 20 µg/mL, HRP anti-human IgG, A405
T3 sequence (looked up): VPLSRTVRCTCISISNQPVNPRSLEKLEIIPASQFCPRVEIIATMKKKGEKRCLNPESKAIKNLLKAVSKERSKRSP
Experimental: as §2

[7] = target: T2, recombinant human IL-8 (form not stated …); assay: SPR, BIAcore 3000, IL-8 amine-coupled on CM-5 chip, 25° C.; half-life of the complex
Experimental: as §1

[8] = target: T4, recombinant human (rh) GRO-α (human, UniProt P09341 35-107); assay: ELISA, plate coated with 1 µg/mL rh-GRO-α, HuMab 10F8 titrated 1:3 from 20 µg/mL, HRP anti-human IgG, A405
T4 sequence (looked up): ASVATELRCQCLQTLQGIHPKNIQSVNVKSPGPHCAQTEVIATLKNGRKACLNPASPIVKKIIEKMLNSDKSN
Experimental: as §2

[9] = target: T2, recombinant human IL-8 (form not stated …); assay: competition: varying 10F8 against 0.25 nM [125I]-rhIL-8 binding to IL-8 receptors (CXCR1, CXCR2) on human neutrophils, filter plate, gamma counting; x axis printed 'IL-8 (nM)'
Experimental: The ability of HuMab 10F8 to inhibit radiolabeled IL-8 binding to IL-8 receptors (CXCR1 and CXCR2) on neutrophils was assessed as follows:
as §3

[10] = target: T5, rh-GRO-β (human, UniProt P19875 35-107); assay: ELISA, plate coated with 1 µg/mL rh-GRO-β, HuMab 10F8 titrated 1:3 from 20 µg/mL, HRP anti-human IgG, A405
T5 sequence (looked up): T4 sequence (looked up) with S2P, V3L, P20L, N27K, R48Q, I58M, N68K, S69N, D70G
Experimental: as §2

[11] = target: T2, recombinant human IL-8 (form not stated …); assay: SPR, BIAcore 3000, IL-8 amine-coupled on CM-5 chip, 37° C.; half-life of the complex
Experimental: as §1

[12] = target: T1, rh-IL-8 72 aa form, monocyte derived; assay: ELISA, plate coated with 1 µg/mL rh-IL-8 72 aa form (curve IL-8M), HuMab 10F8 titrated 1:3 from 20 µg/mL, HRP anti-human IgG, A405
Experimental: as §2

[13] = target: T2, recombinant human IL-8 (form not stated …); assay: SPR, BIAcore 3000, IL-8 amine-coupled on CM-5 chip, 25° C.
Experimental: as §1

expression level of CD11b on IL-8 stimulated PMN (MFI) [1]: 2400 MFI
expression of CD62L on IL-8 stimulated PMN (MFI) [1]: 150 MFI
Molecule: irrelevant human isotype control antibody (Example 8)

IC50 (read off the curve) [2]: 0.5 nM
Molecule: mouse anti-human IL-8 mAb 6712.111 (R & D Systems) (antibody)

Second part, the molecule before the results:

B1: HuMab 10F8 (hybridoma-derived), human monoclonal IgG1,κ antibody (antibody, V domains shown)
VH: QVQLVESGGGVVQPGRSLRLSCTASGFTFSHYGMYWVRQAPGKGLEWVAVIWYDGSYEYNEDSVKGRFTISRDNSKNTLYLQMNSLRAEDTAVYYCARDRVGLFDYWGQGTLVTVSS
VL: EIVLTQSPGTLSLSPGERATLSCRASQSISSSYLAWYQQKPGQAPRLLIYGPSSRATGIPDRFSGSGSGTDFTLTISRLEPEDFAVYYCQQYAGSLTFGPGTKVDIK
notes: Purified from hybridoma culture supernatant by Protein A; also called HuMab-IL-8 clone 10F8; HuMab-IL-8 (10F8)
Kd [3]: 0.02 nM
koff [3]: 5.4e-06 s⁻¹
kon [3]: 275000 M⁻¹ s⁻¹
EC50 (read off the curve) [4]: ~0.2 µg/mL
IC50 [5]: 0.19 nM
binding result [6]: no binding (tested: 20 µg/ml)
Half-life (1n (2/k_off hrs)) [7]: 90.4 h
binding result [8]: no binding (tested: 20 µg/ml)
IC50 (read off the curve) [9]: ~0.2 nM
binding result [10]: no binding (tested: 20 µg/ml)
Half-life (1n (2/k_off hrs)) [11]: 38.2 h
EC50 (read off the curve) [12]: ~0.4 µg/mL
Kd [13]: 0.01 nM
koff [13]: 2.1e-06 s⁻¹
kon [13]: 231000 M⁻¹ s⁻¹

B2: 10F8 Fab (Fab fragment prepared from HuMab 10F8 IgG) (Fab, V domains shown)
VH: B1 VH
VL: B1 VL
Kd [3]: 0.372 nM
koff [3]: 3.94e-05 s⁻¹
kon [3]: 106000 M⁻¹ s⁻¹
Half-life (1n (2/k_off hrs)) [7]: 8.3 h
Half-life (1n (2/k_off hrs)) [11]: 4.9 h
Kd [13]: 0.194 nM
koff [13]: 1.96e-05 s⁻¹
kon [13]: 101000 M⁻¹ s⁻¹

B3: HuMab 10F8 (transfectoma-derived), recombinant 10F8 produced from CHO cells (antibody, V domains shown)
VH: B1 VH
VL: B1 VL
IC50 [5]: 0.3 nM
